Source: patent US20250154231A1
Read-outs that look alike come from different tables or passages of the source.

How the values were obtained:
Assay in all cases: cell-based or functional assay
[1] = target: SARS-CoV-2 spike (S) protein, Omicron BA.4.6 (SARS-CoV-2) (UniProt P0DTC2)
[2] = target: SARS-CoV-2 spike (S) protein, Omicron BA.2.75.2 (SARS-CoV-2) (UniProt P0DTC2)
[3] = target: SARS-CoV-2 spike (S) protein, Omicron BA.4/5 (SARS-CoV-2) (UniProt P0DTC2)
[4] = target: SARS-CoV-2 spike (S) protein, Victoria strain (SARS-CoV-2) (UniProt P0DTC2)
[5] = target: SARS-CoV-2 spike (S) protein, Omicron BA.2.3.20 (SARS-CoV-2) (UniProt P0DTC2)
[6] = target: SARS-CoV-2 spike (S) protein, Omicron BJ.1 (SARS-CoV-2) (UniProt P0DTC2)
[7] = target: SARS-CoV-2 spike (S) protein, Omicron BA.2.75 (SARS-CoV-2) (UniProt P0DTC2)
[8] = target: SARS-CoV-2 spike (S) protein, Omicron BA.2.75 (SARS-CoV-2) (UniProt P0DTC2); remark: listed apart in the source
[9] = target: SARS-CoV-2 spike (S) protein, Omicron BA.4.6 (SARS-CoV-2) (UniProt P0DTC2); remark: listed apart in the source
[10] = target: SARS-CoV-2 Delta spike (S) protein (SARS-CoV-2) (UniProt P0DTC2)
[11] = target: SARS-CoV-2 spike (S) protein, Omicron BA.4/5 (SARS-CoV-2) (UniProt P0DTC2); remark: listed apart in the source
[12] = target: SARS-CoV-2 spike (S) protein, Omicron BA.3 (SARS-CoV-2) (UniProt P0DTC2)
[13] = target: SARS-CoV-2 spike (S) protein, Victoria strain (SARS-CoV-2) (UniProt P0DTC2); remark: listed apart in the source
[14] = target: SARS-CoV-2 spike (S) protein, Omicron BA.2 (SARS-CoV-2) (UniProt P0DTC2)
[15] = target: SARS-CoV-2 Beta spike (S) protein (SARS-CoV-2) (UniProt P0DTC2)
[16] = target: SARS-CoV-2 Omicron BA.2 spike (S) protein (SARS-CoV-2) (UniProt P0DTC2)
[17] = target: SARS-CoV-2 spike (S) protein, Omicron BA.1.1 (SARS-CoV-2) (UniProt P0DTC2)
[18] = target: SARS-CoV-2 spike (S) protein, Omicron BA.1 (SARS-CoV-2) (UniProt P0DTC2)
[19] = target: SARS-CoV-2 Victoria spike (S) protein (SARS-CoV-2) (UniProt P0DTC2)
[20] = target: SARS-CoV-2 Alpha spike (S) protein (SARS-CoV-2) (UniProt P0DTC2)
[21] = target: SARS-CoV-2 Gamma spike (S) protein (SARS-CoV-2) (UniProt P0DTC2)
[22] = target: SARS-CoV-2 Omicron BA.1.1 spike (S) protein (SARS-CoV-2) (UniProt P0DTC2)
[23] = target: SARS-CoV-2 Omicron BA.1 spike (S) protein of the live isolate (SARS-CoV-2) (UniProt P0DTC2)
[24] = target: SARS-CoV-2 spike (S) protein, Omicron BA.2 (SARS-CoV-2) (UniProt P0DTC2); remark: listed apart in the source

Row | Substance | pseudovirus neutralisation IC50 [8] [µg/mL] | IC50, pseudoviral neutralization [9] [µg/mL] | IC50, authentic virus neutralization [10] [µg/mL] | IC50, pseudoviral neutralization [11] [µg/mL] | pseudovirus neutralisation IC50 [11] [µg/mL] | IC50, pseudoviral neutralization [12] [µg/mL] | pseudovirus neutralisation IC50 [12] [µg/mL] | IC50, pseudoviral neutralization [13] [ng/mL] | pseudovirus neutralisation IC50 [13] [ng/mL] | IC50, pseudoviral neutralization [14] [µg/mL] | pseudovirus neutralisation IC50 [14] [µg/mL] | IC50, authentic virus neutralization [15] [µg/mL] | IC50, authentic virus neutralization [16] [µg/mL] | IC50, pseudoviral neutralization [17] [µg/mL] | pseudovirus neutralisation IC50 [17] [µg/mL] | IC50, pseudoviral neutralization [18] [µg/mL] | pseudovirus neutralisation IC50 [18] [µg/mL] | IC50, authentic virus neutralization [19] [ng/mL] | IC50, authentic virus neutralization [20] [µg/mL] | IC50, authentic virus neutralization [21] [ng/mL] | also measured
1 | Ly-CoV16 (antibody) | > 10 | > 10 | 0.012 | > 10 | > 10 | > 10 | > 10 | 14 | 14 | > 10 | > 10 | > 10 | > 10 | > 10 | > 10 | > 10 | > 10 | 34 | 3.23 | > 10000 | IC50, pseudoviral neutralization [1]: > 10 µg/mL; IC50, pseudoviral neutralization [2]: > 10 µg/mL; IC50, pseudoviral neutralization [3]: > 10 µg/mL; IC50, pseudoviral neutralization [4]: 14 ng/mL; IC50, pseudoviral neutralization [5]: > 10 µg/mL; IC50, pseudoviral neutralization [6]: > 10 µg/mL; IC50, pseudoviral neutralization [7]: > 10 µg/mL; IC50, authentic virus neutralization [22]: > 10 µg/mL; IC50, authentic virus neutralization [23]: > 10 µg/mL
2 | AZD1061 (antibody) | 0.021 | > 10 | 0.038 | 0.015 | 0.015 | 0.019 | 0.019 | 2 | 2 | 0.008 | 0.008 | 0.014 | 0.028 | > 10 | > 10 | 0.308 | 0.308 | 13 | 0.012 | 7 | IC50, pseudoviral neutralization [1]: > 10 µg/mL; IC50, pseudoviral neutralization [2]: > 10 µg/mL; IC50, pseudoviral neutralization [3]: 0.015 µg/mL; IC50, pseudoviral neutralization [4]: 2 ng/mL; IC50, pseudoviral neutralization [24]: 0.008 µg/mL; IC50, pseudoviral neutralization [5]: > 10 µg/mL; IC50, pseudoviral neutralization [6]: > 10 µg/mL; IC50, pseudoviral neutralization [7]: 0.021 µg/mL; IC50, authentic virus neutralization [22]: > 10 µg/mL; IC50, authentic virus neutralization [23]: 3.49 µg/mL
3 | REGN10987 (antibody) | > 10 | > 10 | 0.017 | > 10 | > 10 | > 10 | > 10 | 2 | 2 | 0.616 | 0.616 | 0.007 | 1.85 | > 10 | > 10 | > 10 | > 10 | 32 | 0.028 | 13 | IC50, pseudoviral neutralization [1]: > 10 µg/mL; IC50, pseudoviral neutralization [2]: > 10 µg/mL; IC50, pseudoviral neutralization [3]: > 10 µg/mL; IC50, pseudoviral neutralization [4]: 2 ng/mL; IC50, pseudoviral neutralization [24]: 0.615 µg/mL; IC50, pseudoviral neutralization [5]: > 10 µg/mL; IC50, pseudoviral neutralization [6]: > 10 µg/mL; IC50, pseudoviral neutralization [7]: > 10 µg/mL; IC50, authentic virus neutralization [22]: > 10 µg/mL; IC50, authentic virus neutralization [23]: > 10 µg/mL
4 | ADG30 (antibody) | > 10 | > 10 | 0.033 | > 10 | > 10 | > 10 | > 10 | 14 | 14 | > 10 | > 10 | 0.029 | > 10 | > 10 | > 10 | > 10 | > 10 | 7 | 0.016 | 2 | IC50, authentic virus neutralization [22]: > 10 µg/mL; IC50, authentic virus neutralization [23]: > 10 µg/mL
5 | Ly-CoV555 (antibody) | > 10 | > 10 |  | > 10 | > 10 | > 10 | > 10 | 2 | 2 | > 10 | > 10 |  |  | > 10 | > 10 | > 10 | > 10 |  |  |  | IC50, pseudoviral neutralization [1]: > 10 µg/mL; IC50, pseudoviral neutralization [2]: > 10 µg/mL; IC50, pseudoviral neutralization [3]: > 10 µg/mL; IC50, pseudoviral neutralization [4]: 2 ng/mL; IC50, pseudoviral neutralization [24]: > 10 µg/mL; IC50, pseudoviral neutralization [5]: > 10 µg/mL; IC50, pseudoviral neutralization [6]: > 10 µg/mL; IC50, pseudoviral neutralization [7]: > 10 µg/mL
6 | ADG10 (antibody) | > 10 | > 10 | 0.026 | > 10 | > 10 | > 10 | > 10 | 7 | 7 | > 10 | > 10 | 0.011 | > 10 | > 10 | > 10 | > 10 | > 10 | 6 | 0.01 | 3 | IC50, authentic virus neutralization [22]: > 10 µg/mL; IC50, authentic virus neutralization [23]: > 10 µg/mL
7 | ADG20 (antibody) | > 10 | > 10 | 0.006 | > 10 | > 10 | > 10 | > 10 | 3 | 3 | > 10 | > 10 | 0.01 | > 10 | 0.253 | 0.253 | 0.348 | 0.348 | 4 | 0.006 | 9 | IC50, pseudoviral neutralization [1]: > 10 µg/mL; IC50, pseudoviral neutralization [2]: > 10 µg/mL; IC50, pseudoviral neutralization [3]: > 10 µg/mL; IC50, pseudoviral neutralization [24]: > 10 µg/mL; IC50, pseudoviral neutralization [5]: > 10 µg/mL; IC50, pseudoviral neutralization [6]: > 10 µg/mL; IC50, pseudoviral neutralization [7]: > 10 µg/mL; IC50, authentic virus neutralization [22]: 1.27 µg/mL; IC50, authentic virus neutralization [23]: 1.1 µg/mL
8 | AZD7442 | 0.017 | > 10 |  | 0.065 | 0.065 | 0.065 | 0.065 | 1 | 1 | 0.008 | 0.008 |  |  | 0.806 | 0.806 | 0.232 | 0.232 |  |  |  | 
